# Source: patent publication US20180339057A1 (Novo Nordisk, published 2018)
# Positions count from the first letter of the chain named. Names and notes keep the numbering of the source.
# T1: human MIC-1 receptor (hGFRAL, GDNF family receptor alpha like), full length (human, UniProt Q6UXV0 19-394)
# T1 sequence (looked up): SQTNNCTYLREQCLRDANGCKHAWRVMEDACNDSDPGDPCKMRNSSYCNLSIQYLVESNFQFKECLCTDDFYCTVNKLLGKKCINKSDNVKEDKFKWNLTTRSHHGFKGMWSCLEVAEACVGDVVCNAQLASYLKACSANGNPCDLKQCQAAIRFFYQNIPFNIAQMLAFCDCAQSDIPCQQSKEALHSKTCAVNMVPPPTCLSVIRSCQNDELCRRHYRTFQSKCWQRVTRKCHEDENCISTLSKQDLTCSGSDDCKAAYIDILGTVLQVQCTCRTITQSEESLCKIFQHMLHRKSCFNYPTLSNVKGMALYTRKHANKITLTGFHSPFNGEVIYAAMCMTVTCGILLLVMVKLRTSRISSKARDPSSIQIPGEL
# B1: SEPATSGSETPGTSESATPESGPGTSTEPSEG-MIC-1-des-N3 (M57L, M86L) (ligand)
# chain: SEPATSGSETPGTSESATPESGPGTSTEPSEGARGDHCPLGPGRCCRLHTVRASLEDLGWADWVLSPREVQVTMCIGACPSQFRAANLHAQIKTSLHRLKPDTVPAPCCVPASYNPLVLIQKTDTGVSLQTYDDLLAKDCHCI
# notes: homodimer; no protractor
# B2: Compound 01 (ligand)
# chain: B1 chain with A4C, L88M, L117M
# modifications: Cys-29 (residue 4 of SEQ ID NO: 288): S{Beta}-[2-[2-[[2-[2-[2-[[2-[2-[2-[[(4S)-4-carboxy-4-(17-carboxyheptadecanoylamino)butanoyl]amino]ethoxy]ethoxy]acetyl]amino]ethoxy]ethoxy]acetyl]amino]ethylamino]-2-oxoethyl]Cys (protractor of Example 10.4)
# notes: homodimer, two protractors per dimer
# B3: Compound 02 (ligand)
# chain: B1 chain with S6C, L88M, L117M
# modifications: Cys-27 (residue 6 of SEQ ID NO: 291): S{Beta}-[2-[2-[[2-[2-[2-[[2-[2-[2-[[(4S)-4-carboxy-4-(17-carboxyheptadecanoylamino)butanoyl]amino]ethoxy]ethoxy]acetyl]amino]ethoxy]ethoxy]acetyl]amino]ethylamino]-2-oxoethyl]Cys
# notes: as for B2
# B4: Compound 03 (ligand)
# chain: B1 chain with S6C, L88M, L117M
# modifications: Cys-27 (residue 6 of SEQ ID NO: 291): S{Beta}-[2-[2-[[2-[2-[2-[[2-[2-[2-[[(4S)-4-carboxy-4-(15-carboxypentadecanoylamino)butanoyl]amino]ethoxy]ethoxy]acetyl]amino]ethoxy]ethoxy]acetyl]amino]ethylamino]-2-oxoethyl]Cys (protractor of Example 10.2)
# notes: as for B2
# B5: AAPEDEETPEQEGSGSGSGSGS-MIC-1-Δ1-3 (ligand)
# chain: AAPEDEETPEQEGSGSGSGSGSGDHCPLGPGRCCRLHTVRASLEDLGWADWVLSPREVQVTMCIGACPSQFRAANMHAQIKTSLHRLKPDTVPAPCCVPASYNPMVLIQKTDTGVSLQTYDDLLAKDCHCI
# B6: AAPDEGTEEETEGSGSGSGSGS-MIC-1-Δ1-3 (ligand)
# chain: B5 chain with E4D, D5E, E6G, E7T, T8E, P9E, Q11T
# B7: A(GPEQGQEP)3-MIC-1-Δ1-3 (ligand)
# chain: AGPEQGQEPGPEQGQEPGPEQGQEPGDHCPLGPGRCCRLHTVRASLEDLGWADWVLSPREVQVTMCIGACPSQFRAANMHAQIKTSLHRLKPDTVPAPCCVPASYNPMVLIQKTDTGVSLQTYDDLLAKDCHCI
# B8: AASPAGSPTSTEEGTSESATPESGPG-MIC-1(SEQ ID NO: 1) (ligand)
# chain: AASPAGSPTSTEEGTSESATPESGPGARNGDHCPLGPGRCCRLHTVRASLEDLGWADWVLSPREVQVTMCIGACPSQFRAANMHAQIKTSLHRLKPDTVPAPCCVPASYNPMVLIQKTDTGVSLQTYDDLLAKDCHCI
# B9: (AEE)5AES-MIC-1-Δ1-3 (ligand)
# chain: AEEAEEAEEAEEAEEAESGDHCPLGPGRCCRLHTVRASLEDLGWADWVLSPREVQVTMCIGACPSQFRAANMHAQIKTSLHRLKPDTVPAPCCVPASYNPMVLIQKTDTGVSLQTYDDLLAKDCHCI
# B10: (SEPATSGSETPG)2-MIC-1-Δ1-3(M57L, M86L) (ligand)
# chain: SEPATSGSETPGSEPATSGSETPGGDHCPLGPGRCCRLHTVRASLEDLGWADWVLSPREVQVTMCIGACPSQFRAANLHAQIKTSLHRLKPDTVPAPCCVPASYNPLVLIQKTDTGVSLQTYDDLLAKDCHCI
# B11: SEPATSGSETPGTSESATPESGPGTSTEPSEG-MIC-1-Δ1-3 (ligand)
# chain: SEPATSGSETPGTSESATPESGPGTSTEPSEGGDHCPLGPGRCCRLHTVRASLEDLGWADWVLSPREVQVTMCIGACPSQFRAANMHAQIKTSLHRLKPDTVPAPCCVPASYNPMVLIQKTDTGVSLQTYDDLLAKDCHCI
# B12: MIC-1(R2A,N3E,A54E) (ligand)
# chain: AAEGDHCPLGPGRCCRLHTVRASLEDLGWADWVLSPREVQVTMCIGACPSQFREANMHAQIKTSLHRLKPDTVPAPCCVPASYNPMVLIQKTDTGVSLQTYDDLLAKDCHCI
# B13: MIC-1(R2A,N3E,A81E) (ligand)
# chain: B12 chain with E54A, A81E
# B14: SEPATSGSETPGTSESATPESGPGTSTEPS-MIC-1-Δ1-3 (ligand)
# chain: SEPATSGSETPGTSESATPESGPGTSTEPSGDHCPLGPGRCCRLHTVRASLEDLGWADWVLSPREVQVTMCIGACPSQFRAANMHAQIKTSLHRLKPDTVPAPCCVPASYNPMVLIQKTDTGVSLQTYDDLLAKDCHCI
# B15: (AEE)3AES-MIC-1-Δ1-3 (ligand)
# chain: AEEAEEAEEAESGDHCPLGPGRCCRLHTVRASLEDLGWADWVLSPREVQVTMCIGACPSQFRAANMHAQIKTSLHRLKPDTVPAPCCVPASYNPMVLIQKTDTGVSLQTYDDLLAKDCHCI
# B16: AAPEDEETPEQE-MIC-1-Δ1-3 (ligand)
# chain: B15 chain with E2A, E3P, A4E, E5D, A7E, E8T, E9P, A10E, E11Q, S12E
# B17: …-MIC-1-Δ1-3 (ligand)
# chain: SEPATSGSETPGTSTEPSEGSAPGGDHCPLGPGRCCRLHTVRASLEDLGWADWVLSPREVQVTMCIGACPSQFRAANMHAQIKTSLHRLKPDTVPAPCCVPASYNPMVLIQKTDTGVSLQTYDDLLAKDCHCI
# B18: (SEPATSGSETPG)2-MIC-1-Δ1-3(M57E) (ligand)
# chain: B10 chain with L78E, L107M
# B19: (SEPATSGSETPG)2-MIC-1-Δ1-3(M86L) (ligand)
# chain: B10 chain with L78M
# B20: (SEPATSGSETPG)2-MIC-1-Δ1-3 (ligand)
# chain: B10 chain with L78M, L107M
# B21: (SEPATSGSETPG)2-MIC-1-Δ1-3(M57L) (ligand)
# chain: B10 chain with L107M
# B22: TSESATPESGPGTSESATPESGPG-MIC-1(R2A,N3E) (ligand)
# chain: TSESATPESGPGTSESATPESGPGAAEGDHCPLGPGRCCRLHTVRASLEDLGWADWVLSPREVQVTMCIGACPSQFRAANMHAQIKTSLHRLKPDTVPAPCCVPASYNPMVLIQKTDTGVSLQTYDDLLAKDCHCI
# B23: (AEE)6AES-MIC-1 (ligand)
# chain: AEEAEEAEEAEEAEEAEEAESGDHCPLGPGRCCRLHTVRASLEDLGWADWVLSPREVQVTMCIGACPSQFRAANMHAQIKTSLHRLKPDTVPAPCCVPASYNPMVLIQKTDTGVSLQTYDDLLAKDCHCI
# B24: SPAGSPTSTEEGTSESATPESGPG-MIC-1(SEQ ID NO: 1) (ligand)
# chain: SPAGSPTSTEEGTSESATPESGPGARNGDHCPLGPGRCCRLHTVRASLEDLGWADWVLSPREVQVTMCIGACPSQFRAANMHAQIKTSLHRLKPDTVPAPCCVPASYNPMVLIQKTDTGVSLQTYDDLLAKDCHCI
# B25: AASPAGSPTSTEEGTSESATPESGPG-MIC-1-Δ1-3 (ligand)
# chain: AASPAGSPTSTEEGTSESATPESGPGGDHCPLGPGRCCRLHTVRASLEDLGWADWVLSPREVQVTMCIGACPSQFRAANMHAQIKTSLHRLKPDTVPAPCCVPASYNPMVLIQKTDTGVSLQTYDDLLAKDCHCI
# Biological target: T1, human MIC-1 receptor (hGFRAL, GDNF …)
# Experiment: cell-based or functional assay
Luciferase + 0.1% HSA NNDK EC50 (pM),Luciferase NNDK EC50 (pM),Binder
64 pM,85 pM,B1
59 pM,72 pM,B2
107 pM,123 pM,B3
106 pM,96 pM,B4

# Biological target: T1, human MIC-1 receptor (hGFRAL, GDNF …)
# Experiment: SPA: displacement of 50 pM human [125I]-MIC-1 from BHK21-hGFRAL-IRES-hRET cell membranes
# Method: Binding potencies of MIC-1 compounds were calculated by IC50 of displacement curves.
# BHK21-hGFRAL-IRES-hRET cells were cultured at +37° C. in a humidified atmosphere with 5% CO₂ in complete medium consisting of DMEM with high glucose and sodium pyrovate, heat inactivated 10% Fetal Bovine Serum, 1% Penicillin-Streptomycin, 1 mg/ml G418-Geneticin and 400 ug/ml Hygromycin. Cells were washed twice in ice cold Dulbecco's phosphate-buffered saline (DPBS) and detached mechanically by scraping, transferred in ice cold DPBS into conical centrifuge tubes and centrifuged for 5 min at 1500 rpm at +20° C. Cell pellet was resuspended in a total amount of 10 ml ice cold homogenization buffer A (50 mM Tris, 2.5 mM EDTA, adjust pH7.4 with one EDTA-free protease inhibitor cocktail tablet/50 ml) and homogenized for 20 seconds. The homogenate was centrifuged at 16000 rpm in 20 minutes at +4° C. The supernatant was discarded and the pellet was reconstituted in 10 ml homogenization buffer B (50 mM Tris, 320 mM Sucrose, adjust pH 7.4 with one EDTA-free protease inhibitor cocktail tablet/50 ml) and homogenized for 20 seconds and centrifuged at 16000 rpm in 20 minutes at +4° C. This procedure was repeated one more time. The supernatant was discarded and the pellet was reconstituted in 3 ml homogenization buffer B and homogenized for 10 seconds at low speed. Protein concentration was determined by standard Bradford method and 1.5 mg protein/tube was aliquoted to cryotubes and stored at −80° C. Binding assays were performed in white 96-well plates in a total volume of 200 μl per well. Wheat germ agglutinin SPA beads were reconstituted in assay buffer (50 mM Tris/HCl, 4.5 mM MgCl₂, 0.02% Tween 20 and 0.25% Ovalbumin pH 7.4) and mixed with membrane preparation to give a final concentration of 0.5 mg SPA beads and 10 μg total protein per well. […] The plate was sealed and incubated at +22° C. for 2 hours in a plate shaker set at 350 rpm and thereafter centrifuged at 1500 rpm for 10 minutes prior to reading of SPA bead light emission.
row,IC50,Binder
1,119 nM,B1
2,3.8 nM,B2
3,4.9 nM,B3
4,11 nM,B4

# Biological target: T1, human MIC-1 receptor (hGFRAL, GDNF …)
# Experiment: cell-based or functional assay
# Remark: another data set of the same source
Emax (%),pERK EC50 (nM),Binder
100%,0.5 nM,B5
100%,0.5 nM,B6
100%,0.8 nM,B7
100%,0.4 nM,B8
100%,0.5 nM,B9
100%,0.4 nM,B10
100%,0.4 nM,B11
100%,0.3 nM,B12
100%,0.3 nM,B13
100%,0.4 nM,B14
100%,0.5 nM,B15
100%,0.5 nM,B16
100%,0.7 nM,B17
60%,0.6 nM,B18
100%,0.4 nM,B19
100%,0.4 nM,B20
100%,0.6 nM,B21
100%,0.3 nM,B22
100%,0.8 nM,B23
100%,0.4 nM,B24
100%,0.7 nM,B25
